T1: PAH5 Right TAL-PBx (synthetic construct)
T1 chain: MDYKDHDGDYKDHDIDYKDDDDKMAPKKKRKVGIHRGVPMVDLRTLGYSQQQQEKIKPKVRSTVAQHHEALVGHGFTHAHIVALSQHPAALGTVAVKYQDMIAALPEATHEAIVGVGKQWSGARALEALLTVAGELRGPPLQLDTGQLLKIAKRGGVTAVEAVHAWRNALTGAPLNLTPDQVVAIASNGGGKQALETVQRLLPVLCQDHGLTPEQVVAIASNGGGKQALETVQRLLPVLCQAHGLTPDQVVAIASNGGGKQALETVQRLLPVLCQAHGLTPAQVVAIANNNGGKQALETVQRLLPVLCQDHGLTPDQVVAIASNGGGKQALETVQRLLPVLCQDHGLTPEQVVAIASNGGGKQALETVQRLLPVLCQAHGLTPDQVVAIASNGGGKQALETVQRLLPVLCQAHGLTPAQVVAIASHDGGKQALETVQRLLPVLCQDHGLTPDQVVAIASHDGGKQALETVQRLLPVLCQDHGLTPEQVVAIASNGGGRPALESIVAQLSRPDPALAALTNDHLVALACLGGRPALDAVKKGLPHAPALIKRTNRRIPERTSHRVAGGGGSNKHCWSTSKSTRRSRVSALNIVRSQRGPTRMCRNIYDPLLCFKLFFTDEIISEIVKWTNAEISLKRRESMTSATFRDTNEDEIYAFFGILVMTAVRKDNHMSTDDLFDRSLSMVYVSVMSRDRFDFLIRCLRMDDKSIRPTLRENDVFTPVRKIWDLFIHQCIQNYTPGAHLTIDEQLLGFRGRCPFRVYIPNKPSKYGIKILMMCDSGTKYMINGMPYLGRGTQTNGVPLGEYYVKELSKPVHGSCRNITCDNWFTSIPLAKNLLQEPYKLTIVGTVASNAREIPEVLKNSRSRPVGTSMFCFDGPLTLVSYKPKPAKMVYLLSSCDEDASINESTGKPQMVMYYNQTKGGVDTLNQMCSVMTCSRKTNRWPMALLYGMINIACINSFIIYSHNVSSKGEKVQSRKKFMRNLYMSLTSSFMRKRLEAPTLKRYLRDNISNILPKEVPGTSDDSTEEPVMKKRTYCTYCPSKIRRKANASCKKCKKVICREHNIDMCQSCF

T2: PAH5 Left TAL-PBx (synthetic construct)
T2 chain: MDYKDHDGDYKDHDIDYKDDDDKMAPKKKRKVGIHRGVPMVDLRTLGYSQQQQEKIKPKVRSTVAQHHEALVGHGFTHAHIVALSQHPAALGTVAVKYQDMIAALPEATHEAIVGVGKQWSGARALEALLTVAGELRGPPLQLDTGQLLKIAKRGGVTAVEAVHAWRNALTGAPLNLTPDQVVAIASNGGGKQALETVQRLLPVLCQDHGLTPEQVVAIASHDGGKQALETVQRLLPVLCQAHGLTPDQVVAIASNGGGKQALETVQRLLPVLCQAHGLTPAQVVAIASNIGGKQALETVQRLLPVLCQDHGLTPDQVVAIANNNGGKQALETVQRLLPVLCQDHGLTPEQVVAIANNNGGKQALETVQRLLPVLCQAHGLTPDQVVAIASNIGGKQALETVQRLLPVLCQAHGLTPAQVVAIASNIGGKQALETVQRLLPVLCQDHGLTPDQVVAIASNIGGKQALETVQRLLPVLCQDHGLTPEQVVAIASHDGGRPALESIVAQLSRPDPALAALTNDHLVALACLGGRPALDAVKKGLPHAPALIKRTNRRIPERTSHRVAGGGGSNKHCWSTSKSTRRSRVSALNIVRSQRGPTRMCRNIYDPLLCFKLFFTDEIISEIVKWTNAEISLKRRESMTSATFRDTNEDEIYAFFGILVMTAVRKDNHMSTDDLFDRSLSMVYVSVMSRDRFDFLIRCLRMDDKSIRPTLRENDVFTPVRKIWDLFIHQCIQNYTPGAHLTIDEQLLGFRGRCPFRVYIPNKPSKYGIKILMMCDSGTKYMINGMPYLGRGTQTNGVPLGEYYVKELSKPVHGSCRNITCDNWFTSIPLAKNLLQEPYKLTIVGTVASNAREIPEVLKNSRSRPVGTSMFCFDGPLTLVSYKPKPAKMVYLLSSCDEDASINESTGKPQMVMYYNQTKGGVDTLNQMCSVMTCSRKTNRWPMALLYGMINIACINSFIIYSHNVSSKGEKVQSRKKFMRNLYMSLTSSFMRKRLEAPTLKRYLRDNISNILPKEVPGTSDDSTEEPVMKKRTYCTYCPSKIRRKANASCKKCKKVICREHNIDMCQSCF

T3: PAH4 Right TAL-PBx (synthetic construct)
T3 chain: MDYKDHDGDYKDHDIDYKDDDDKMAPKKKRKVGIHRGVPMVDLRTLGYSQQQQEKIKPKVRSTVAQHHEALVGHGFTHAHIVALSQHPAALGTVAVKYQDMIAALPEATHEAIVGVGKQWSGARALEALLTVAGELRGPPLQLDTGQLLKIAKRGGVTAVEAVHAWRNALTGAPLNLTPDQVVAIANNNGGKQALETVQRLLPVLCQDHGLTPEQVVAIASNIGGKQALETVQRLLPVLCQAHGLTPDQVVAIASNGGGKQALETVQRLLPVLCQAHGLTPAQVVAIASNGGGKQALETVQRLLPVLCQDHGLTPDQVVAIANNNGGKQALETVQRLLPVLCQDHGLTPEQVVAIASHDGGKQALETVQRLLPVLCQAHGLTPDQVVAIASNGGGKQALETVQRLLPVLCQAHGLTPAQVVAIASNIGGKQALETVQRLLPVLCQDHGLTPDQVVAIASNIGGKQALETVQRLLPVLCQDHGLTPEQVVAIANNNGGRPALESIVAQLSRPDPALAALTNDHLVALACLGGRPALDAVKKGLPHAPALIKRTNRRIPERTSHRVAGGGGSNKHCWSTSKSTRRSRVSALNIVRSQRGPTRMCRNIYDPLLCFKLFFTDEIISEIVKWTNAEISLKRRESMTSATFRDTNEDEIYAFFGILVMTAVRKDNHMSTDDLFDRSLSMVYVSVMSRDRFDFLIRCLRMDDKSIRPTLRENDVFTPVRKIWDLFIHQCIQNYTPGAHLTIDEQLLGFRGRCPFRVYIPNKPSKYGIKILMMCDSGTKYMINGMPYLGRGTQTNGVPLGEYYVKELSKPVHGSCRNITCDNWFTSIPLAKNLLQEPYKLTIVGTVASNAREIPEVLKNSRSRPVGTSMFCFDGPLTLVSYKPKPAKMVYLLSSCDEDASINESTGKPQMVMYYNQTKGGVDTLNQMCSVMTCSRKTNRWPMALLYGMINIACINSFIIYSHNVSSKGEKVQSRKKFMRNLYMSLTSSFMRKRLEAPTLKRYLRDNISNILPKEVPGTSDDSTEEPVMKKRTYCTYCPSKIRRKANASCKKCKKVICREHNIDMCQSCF

T4: PAH4 Left TAL-PBx (synthetic construct)
T4 chain: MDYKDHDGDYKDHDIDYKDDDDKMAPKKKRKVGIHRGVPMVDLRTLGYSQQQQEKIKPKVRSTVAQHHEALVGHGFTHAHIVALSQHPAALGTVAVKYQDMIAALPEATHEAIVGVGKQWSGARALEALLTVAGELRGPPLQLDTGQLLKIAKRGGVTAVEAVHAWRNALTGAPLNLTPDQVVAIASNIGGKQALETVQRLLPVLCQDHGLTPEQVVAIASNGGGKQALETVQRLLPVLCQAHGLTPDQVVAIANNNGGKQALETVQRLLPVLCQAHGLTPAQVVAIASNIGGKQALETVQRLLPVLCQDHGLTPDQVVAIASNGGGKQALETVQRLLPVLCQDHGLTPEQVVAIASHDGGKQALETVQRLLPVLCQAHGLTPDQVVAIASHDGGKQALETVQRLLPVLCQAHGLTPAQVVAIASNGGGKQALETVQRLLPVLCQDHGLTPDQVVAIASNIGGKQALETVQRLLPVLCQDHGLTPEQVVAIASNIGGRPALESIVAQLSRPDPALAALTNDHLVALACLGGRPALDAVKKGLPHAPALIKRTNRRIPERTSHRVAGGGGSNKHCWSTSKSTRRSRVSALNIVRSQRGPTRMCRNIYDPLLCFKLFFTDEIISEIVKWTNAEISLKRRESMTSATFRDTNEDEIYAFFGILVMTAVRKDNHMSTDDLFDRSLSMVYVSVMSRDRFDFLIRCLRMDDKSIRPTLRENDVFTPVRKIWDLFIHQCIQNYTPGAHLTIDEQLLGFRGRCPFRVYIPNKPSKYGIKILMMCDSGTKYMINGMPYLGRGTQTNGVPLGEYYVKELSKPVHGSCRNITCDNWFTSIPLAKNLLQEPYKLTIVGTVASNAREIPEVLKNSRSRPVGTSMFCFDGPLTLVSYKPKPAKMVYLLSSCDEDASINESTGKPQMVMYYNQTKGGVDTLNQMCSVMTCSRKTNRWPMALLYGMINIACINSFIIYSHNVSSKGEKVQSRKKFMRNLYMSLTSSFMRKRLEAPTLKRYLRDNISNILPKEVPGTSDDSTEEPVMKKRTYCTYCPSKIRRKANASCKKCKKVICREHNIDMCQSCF

B1: PAH5 target (dsDNA)
DNA 1: TTCTAGGAAACTTGAACTATGATTTTAAAAAAAGAGAAAGAAGGAAACAAAA
DNA 2: TTTTGTTTCCTTCTTTCTCTTTTTTTAAAATCATAGTTCAAGTTTCCTAGAA
B2: PAH4 target (dsDNA)
DNA 1: TATGATCCTAATCAGGCTTGTAAATTAACTTTTGAGGCTCTCTTAGCAATCA
DNA 2: TGATTGCTAAGAGAGCCTCAAAAGTTAATTTACAAGCCTGATTAGGATCATA

Legend:
Details in all cases: tags: 3xFlag, SV40 NLS
PAH5 Right TAL-PBx = target: T1, PAH5 Right TAL-PBx; experiment: cell_activity; right only
PAH5 Left TAL-PBx = target: T2, PAH5 Left TAL-PBx; experiment: cell_activity; left only
PAH4 Right TAL-PBx = target: T3, PAH4 Right TAL-PBx; experiment: cell_activity; right only
PAH4 Left TAL-PBx = target: T4, PAH4 Left TAL-PBx; experiment: cell_activity; left only

Binder	activity (PAH5 Right TAL-PBx) [% GFP+]	activity (PAH5 Left TAL-PBx) [% GFP+]	activity (PAH4 Right TAL-PBx) [% GFP+]	activity (PAH4 Left TAL-PBx) [% GFP+]
B1	3.9	3.6		
B2			2.9	3.6

Reference: patent publication US20240392262A1, “TRANSPOSASE AND USES THEREOF” (Poseida Therapeutics, Inc., published 2024)
